The values below come from US20110165145A1 (published 2011).

Residue numbers refer to the chain shown, from its start.

Assay [1] deals with T1, insulin-like growth factor II (IGF-II), amino acids 1-67 (human, UniProt P01344 25-91).
T1 construct: recombinant; also called IGF-II (67aa); IGF2
Briefly: SPR (value equals that of Table 6, there under IgGs); Fab, not IgG.

The target in assay [2] is T1, insulin-like growth factor II (IGF-II), …. In words: SPR (Flexchip), Fab, 2nd of duplicate.
For assay [3], the target named is T2, IGF-IIE (amino acids 1-104 of pro-IGF-II) (human, UniProt P01344 25-128).
T2 construct: Biotinylated in the selections; also called IGF-IIE (104aa)
T2 sequence (P01344 25-128): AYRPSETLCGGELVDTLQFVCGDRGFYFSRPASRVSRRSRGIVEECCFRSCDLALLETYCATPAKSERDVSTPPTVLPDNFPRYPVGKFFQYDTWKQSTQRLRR
In words: SPR (Flexchip), Fab, 2nd of duplicate.

The target in assay [4] is T1, insulin-like growth factor II (IGF-II), …. Briefly: competition SPR (BIACORE T100), affinity in solution, free ligand read on huIR-A ECD; measurement 1. The method, then:
(§1) Competition SPR (BIACORE®) was performed under conditions of partially mass-transport limited conditions according to previously described methodology (Nieba et al., 1996). Approximately 16,700 relative response units (RU) of huIR-A (-exon11) ectodomain was coupled by standard amine chemistry to a BIACORE® CM5 chip sensor. Uncoated flow-cell surface was used as a reference. […] Regeneration of the surface was achieved by injection of 30 ul NaCltrate/NaCl pH 4.5. […] These Req estimates were subsequently plotted against total concentrations of Fab used and the resulting inhibition curve was utilised to calculate dissociation constant (KD).
For orientation: In SPR one partner is held on a chip, and binding of the other changes the refractive index at the surface.

The target of assay [5] is T2, IGF-IIE (amino acids 1-104 of …). The description is as above. As to the method:
as §1

For assay [6], the target named is T1, insulin-like growth factor II (IGF-II), …. Briefly: SPR, compared with DX-2647.
Assay [7] shares this target. In words: SPR (Flexchip), Fab, 1st of duplicate.
In assay [8] the target is T2, IGF-IIE (amino acids 1-104 of …). Briefly: SPR (Flexchip), Fab, 1st of duplicate.
The target of assay [9] is T3, insulin-like growth factor I (IGF-I) (UniProt P05019 49-118). In words: cell-based or functional assay.
T3 sequence (P05019 49-118 limits assumed): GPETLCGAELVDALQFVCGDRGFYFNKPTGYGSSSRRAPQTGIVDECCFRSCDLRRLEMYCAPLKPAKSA
The target in assay [10] is T1, insulin-like growth factor II (IGF-II), …. In words: competition SPR (BIACORE T100), affinity in solution, free ligand read on huIR-A ECD; measurement 2. As to the method: as §1
In assay [11] the target is T2, IGF-IIE (amino acids 1-104 of …). Described as above. As to the method: as §1
Assay [12] concerns the target T1, insulin-like growth factor II (IGF-II), …. In words: cell-based or functional assay.
Assay [13] concerns the target T2, IGF-IIE (amino acids 1-104 of …). In words: cell-based or functional assay.
The target in assay [14] is T1, insulin-like growth factor II (IGF-II), …. Briefly: SPR, IgG captured on anti-human Fc chip, ligand as analyte.
For assay [15] the target is unchanged. In words: SPR, captured IgG, 1:1 binding model.
Assay [16] has as its target T3, insulin-like growth factor I (IGF-I). Briefly: SPR, captured IgG, 1:1 binding model.
Assay [17] has as its target T2, IGF-IIE (amino acids 1-104 of …). In words: SPR, captured IgG, 1:1 binding model.
Assay [18] addresses T3, insulin-like growth factor I (IGF-I). Briefly: SPR.
In assay [19] the target is pre-formed complex of IGF-II and IGFBP-1 (human, UniProt P08833 26-259). Briefly: SPR: DX-2647 captured through its Fc, pre-formed IGF-II/IGFBP-1 complex injected; concentration not on the sheet.
Another assay addresses T4, IGFBP-1 (UniProt P08833 26-259).
T4 sequence (looked up): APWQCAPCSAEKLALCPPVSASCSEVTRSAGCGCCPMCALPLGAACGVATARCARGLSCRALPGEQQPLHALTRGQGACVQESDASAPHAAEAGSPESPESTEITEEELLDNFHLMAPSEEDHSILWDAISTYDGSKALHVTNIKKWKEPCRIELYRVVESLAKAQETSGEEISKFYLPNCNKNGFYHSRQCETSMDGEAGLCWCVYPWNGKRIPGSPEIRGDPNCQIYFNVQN
In words: SPR: DX-2647 captured through its Fc, IGFBP-1 alone injected; concentration not on the sheet.

T1 sequence (P01344 25-91): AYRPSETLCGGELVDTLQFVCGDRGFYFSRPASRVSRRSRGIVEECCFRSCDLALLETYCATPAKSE

B1: M0064-F02 Fab (Fab, V domains shown)
VH: EVQLLESGGGLVQPGGSLRLSCAASGFTFSNYIMWWVRQAPGKGLEWVSVISSSGGMTRYADSVKGRFTISRDNSKNTLYLQMNSLRAEDTAVYYCARDNGDYVGEKGFDIWGQGTMVTVSS
VL: DIQMTQSPSSLSASVGDRVTITCRASQSISNYLNWYQQKPGKAPKLLIYTASTLQSGVPSRFSGSASGTDFTLTINSLQPEDFATYSCQQSYNSPWTFGQGTKVEIKR
notes: soluble Fab (sFab); also the Fab crystallised with IGF-II; also called R0032-A11; 566A-M0064-F02
One may read the Kd as the concentration at which binding is half-saturated. Low readings indicate tighter binding, high ones weaker binding. Take B1: the equilibrium dissociation constant (Kd) in assay [1] stood at 0.14 nM; in [2], 1.2 nM; in [3], 0.29 nM; in assay [4], 1.03 nM; in [5], 1.91 nM; in assay [7], 0.45 nM. Further, the Kd is 0.32 nM in [8], 0.503 nM in [10] and 0.352 nM in assay [11]. Moreover, the “fold less affinity than DX-2647” value in assay [6] was 7 fold. The “IGF-I stimulated Ba/F3 cell proliferation, sFab at 50 µg/ml” value in [9] was around 30 % inhibition. In addition, the “IC50, IGF-II stimulated Ba/F3 cell proliferation (MTS)” value in assay [12] was 0.68 µg/mL. Also, the “IC50, IGF-IIE stimulated Ba/F3 cell proliferation (MTS)” value in [13] is 3.12 µg/mL.

B2: DX-2647 (antibody, human IgG1, kappa, V domains shown)
VH: B1 VH with M57G, R59L
VL: B1 VL with A66G, N76S, S87Y
notes: human IgG1, germlined from 566A-M0064-F02, expressed in CHOK1SV cells
What is called koff is a measure of how fast the partners let go of each other. A higher koff goes with a short-lived complex. As usually defined, the kon is a measure of how fast the partners come together. Low values mean slower complex formation, high ones faster complex formation. As for B2, the Kd in [14] was 0.023 nM; in [15], 0.0226 nM; in assay [16], 17 nM; in assay [17], below 0.023 nM; in [18], 28 nM. Further, the koff in assay [15] is 2.38e-05 s⁻¹; in assay [16] it was 0.1 s⁻¹; in assay [17], below 2e-05 s⁻¹. For the same molecule, the kon in assay [15] came out at 1.06e+06 M⁻¹ s⁻¹; in assay [16], 5.8e+06 M⁻¹ s⁻¹; in assay [17], 2.06e+06 M⁻¹ s⁻¹. The binding result (in [19]; with IGFBP-1) was “no binding” each time.
